Reference: US20250304643A1 (BAINAN BIOTECH, published 2025)
[ ]: non-standard residue; d: D form. The star is where a group is joined. Palmitoyl = CCCCCCCCCCCCCCCC(=O)*; Aib = CC(C)(N)C(=O)O

Biological target: macaque GLP-2R (macaque)
Experiment: cell-based or functional assay

B1: Compound no. 5 (peptide)
peptide: Palmitoyl-H[Aib]DGTFISDYST[Aib]LDNLAARDFINWLIQTKITK-OH
SMILES: CCCCCCCCCCCCCCCC(=O)N[C@@H](Cc1c[nH]cn1)C(=O)NC(C)(C)C(=O)N[C@@H](CC(=O)O)C(=O)NCC(=O)N[C@H](C(=O)N[C@@H](Cc1ccccc1)C(=O)N[C@H](C(=O)N[C@@H](CO)C(=O)N[C@@H](CC(=O)O)C(=O)N[C@@H](Cc1ccc(O)cc1)C(=O)N[C@@H](CO)C(=O)N[C@H](C(=O)NC(C)(C)C(=O)N[C@@H](CC(C)C)C(=O)N[C@@H](CC(=O)O)C(=O)N[C@@H](CC(N)=O)C(=O)N[C@@H](CC(C)C)C(=O)N[C@@H](C)C(=O)N[C@@H](C)C(=O)N[C@@H](CCCNC(=N)N)C(=O)N[C@@H](CC(=O)O)C(=O)N[C@@H](Cc1ccccc1)C(=O)N[C@H](C(=O)N[C@@H](CC(N)=O)C(=O)N[C@@H](Cc1c[nH]c2ccccc12)C(=O)N[C@@H](CC(C)C)C(=O)N[C@H](C(=O)N[C@@H](CCC(N)=O)C(=O)N[C@H](C(=O)N[C@@H](CCCCN)C(=O)N[C@H](C(=O)N[C@H](C(=O)N[C@@H](CCCCN)C(=O)O)[C@@H](C)O)[C@@H](C)CC)[C@@H](C)O)[C@@H](C)CC)[C@@H](C)CC)[C@@H](C)O)[C@@H](C)CC)[C@@H](C)O
For B1, the “Efficacy (%)” value was 120%.
